Data reported in patent US20100166747A1.

Tests used:
[1] = molecular target: hu IGF-1R(ECD)-C3-muIgG1Fc (human; mouse); assay: ORIGEN competition on IGF-1R(ECD)-C3-muFc beads; competitor 1 nM Ru-IGF-1
[2] = molecular target: hu IGF-1R(ECD)-C3-muIgG1Fc (human; mouse); assay: ORIGEN competition on IGF-1R(ECD)-C3-muFc beads; competitor 2 nM Ru-IGF-2

Row | Max (%) maximum level of inhibition at 1 µM antibody [1] | Max (%) maximum level of inhibition at 1 µM antibody [2] | Substance
1 | 91% | – | murine anti-IGF-1R antibody αIR3 (Calbiochem)
2 | 89% | 99% | murine anti-IGF-1R antibody 1H7 (Santa Cruz Biotechnology)
